Assays:
[1] = biological target: rfa2_human RPA2 (UniProt P15927)
[2] = biological target: rfa2_human RPA2 (UniProt P15927); remark: listed apart in the source

Chain of rfa2_human RPA2 (P15927 whole entry): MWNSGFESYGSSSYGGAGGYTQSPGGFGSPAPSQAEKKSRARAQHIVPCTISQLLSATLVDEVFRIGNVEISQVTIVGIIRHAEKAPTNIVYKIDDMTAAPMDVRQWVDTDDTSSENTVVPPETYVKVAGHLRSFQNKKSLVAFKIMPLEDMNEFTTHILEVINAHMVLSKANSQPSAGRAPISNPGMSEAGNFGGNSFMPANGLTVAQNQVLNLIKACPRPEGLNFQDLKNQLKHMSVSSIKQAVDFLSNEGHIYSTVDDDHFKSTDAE

Row | Substance | effect of a mutation on the interaction [1] | effect of a mutation on the interaction [2]
1 | Bifunctional 3'-5' exonuclease/ATP-dependent helicase WRN (Homo sapiens), Q14191 S1141A | disrupting interaction | –
2 | Bifunctional 3'-5' exonuclease/ATP-dependent helicase WRN (Homo sapiens), Q14191 S991A | – | disrupting interaction
3 | Bifunctional 3'-5' exonuclease/ATP-dependent helicase WRN (Homo sapiens), Q14191 S1292A | disrupting interaction | –
4 | Bifunctional 3'-5' exonuclease/ATP-dependent helicase WRN (Homo sapiens), Q14191 T1152A | – | disrupting interaction
5 | Bifunctional 3'-5' exonuclease/ATP-dependent helicase WRN (Homo sapiens), Q14191 S1058A | disrupting interaction | –
6 | Bifunctional 3'-5' exonuclease/ATP-dependent helicase WRN (Homo sapiens), Q14191 S1256A | – | disrupting interaction
